The text below walks through data of patent US20070053894A1 (TRANSFERT PLUS, published 2007).

Usually kon stands for the second-order rate constant of association. A lower kon goes with slow association. By koff is commonly meant a measure of how fast the partners let go of each other. A low value points to slow dissociation.

The chains are these.
B3: Soluble human recombinant p97 (melanotransferrin) (other)
chain: GMEVRWCATSDPEQHKCGNMSEAFREAGIQPSLLCVRGTSADHCVQLIAAQEADAITLDGGAIYEAGKEHGLKPVVGEVYDQEVGTSYYAVAVVRRSSHVTIDTLKGVKSCHTGINRTVGWNVPVGYLVESGRLSVMGCDVLKAVSDYFGGSCVPGAGETSYSESLCRLCRGDSSGEGVCDKSPLERYYDYSGAFRCLAEGAGDVAFVKHSTVLENTDGKTLPSWGQALLSQDFELLCRDGSRADVTEWRQCHLARVPAHAVVVRADTDGGLIFRLLNEGQRLFSHEGSSFQMFSSEAYGQKDLLFKDSTSELVPIATQTYEAWLGHEYLHAMKGLLCDPNRLPPYLRWCVLSTPEIQKCGDMAVAFRRQRLKPEIQCVSAKSPQHCMERIQAEQVDAVTLSGEDIYTAGKKYGLVPAAGEHYAPEDSSNSYYVVAVVRRDSSHAFTLDELRGKRSCHAGFGSPAGWDVPVGALIQRGFIRPKDCDVLTAVSEFFNASCVPVNNPKNYPSSLCALCVGDEQGRNKCVGNSQERYYGYRGAFRCLVENAGDVAFVRHTTVFDNTNGHNSEPWAAELRSEDYELLCPNGARAEVSQFAACNLAQIPPHAVMVRPDTNIFTVYGLLDKAQDLFGDDHNKNGFKMFDSSNYHGQDLLFKDATVRAVPVGEKTTYRGWLGLDYVAALEGMSSQQCSG
notes: Provided by Biomarin Pharmaceutical Inc; also called soluble p97; MTf

The target of data set [1] is B3. Briefly: not described (Discussion; presumably SPR).
The target in data set [2] is B3. Briefly: SPR (BIAcore), tPA injected over immobilised p97. The protocol:
(§1) Ringer solution or a 50 mM Tris/HCl buffer (pH 7.5) containing 150 mM NaCl and 50 mM CaCl₂ is used as the eluent buffer. Proteins are diluted in the corresponding eluent buffer and injected onto the sensor chip surface. Protein interactions are analyzed using both the Langmuir binding model, which is the simplest model for 1:1 interaction between analyte and immobilized ligand, and a two-state conformational change model which describes a 1:1 binding of analyte to immobilized ligand followed by a conformational change.
(§2) The SPR response for these proteins is plotted in RU as a function of time.
(§3) About 8-10 ng/mm² of PAI-1 was also immobilized onto another well of a sensor chip surface using NHS/EDC coupling conditions.
(In SPR one partner is held on a chip, and binding of the other changes the refractive index at the surface.)

Data set [3] concerns the target T1, pro-urokinase plasminogen activator (pro-uPA) (UniProt P00749 21-431, limits assumed).
T1 construct: Bought reagent; also called sc-uPA; scu-PA
Briefly: SPR (BIAcore), pro-uPA over immobilised p97, two state conformational change model (ka1). The protocol: (§4) Protein interactions are analyzed using both the Langmuir binding model, which is the simplest model for 1:1 interaction between analyte and immobilized ligand, and a two-state conformational change model which describes a 1:1 binding of analyte to immobilized ligand followed by a conformational change.
as §2, §3

The target in data set [4] is T1, pro-urokinase plasminogen activator …. Briefly: SPR (BIAcore), pro-uPA over immobilised p97, two state conformational change model (apparent KD). The protocol:
as §4, §2, §3

In data set [5] the target is T2, plasminogen (UniProt P00747 20-810). The data set can be described thus: cell-based or functional assay.
T2 sequence (P00747 20-810 limits assumed): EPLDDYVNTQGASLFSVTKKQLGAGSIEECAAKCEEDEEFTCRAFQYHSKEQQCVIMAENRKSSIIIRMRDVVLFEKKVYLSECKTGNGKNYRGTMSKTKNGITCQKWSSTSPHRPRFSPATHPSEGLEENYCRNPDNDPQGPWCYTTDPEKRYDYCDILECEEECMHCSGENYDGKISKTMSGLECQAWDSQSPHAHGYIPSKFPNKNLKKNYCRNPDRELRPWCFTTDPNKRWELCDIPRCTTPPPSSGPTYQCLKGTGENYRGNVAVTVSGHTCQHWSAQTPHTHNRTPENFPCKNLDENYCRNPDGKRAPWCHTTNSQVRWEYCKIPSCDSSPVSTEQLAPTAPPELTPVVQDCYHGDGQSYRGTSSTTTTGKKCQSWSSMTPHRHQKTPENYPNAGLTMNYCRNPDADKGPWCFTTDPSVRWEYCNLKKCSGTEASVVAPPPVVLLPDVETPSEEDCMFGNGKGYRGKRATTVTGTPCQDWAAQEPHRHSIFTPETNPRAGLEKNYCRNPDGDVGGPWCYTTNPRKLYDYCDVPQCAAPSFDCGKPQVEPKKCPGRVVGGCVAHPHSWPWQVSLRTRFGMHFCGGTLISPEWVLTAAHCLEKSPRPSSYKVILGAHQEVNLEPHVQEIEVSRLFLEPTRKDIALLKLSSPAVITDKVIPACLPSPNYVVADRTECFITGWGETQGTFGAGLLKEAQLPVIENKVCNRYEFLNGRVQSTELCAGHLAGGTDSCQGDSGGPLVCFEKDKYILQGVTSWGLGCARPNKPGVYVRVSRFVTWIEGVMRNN
Data set [6] concerns the molecule itself. The data set can be described thus: SPR (BIAcore), soluble p97 injected over p97 immobilised on a CM5 chip. The protocol: as §1
(§5) Transcytosis experiments are performed at 37° C. for 2 hrs. […] At the end of the experiment, radiolabelled proteins are measured in the lower chamber of each well by TCA precipitation.

For data set [7], the target named is T1, pro-urokinase plasminogen activator …. The data set can be described thus: SPR (BIAcore), two state conformational change model; text value differs from Table 3. The protocol: as §4, §2, §3
The target in the next data set is plasmin (UniProt P00747 97-810, limits assumed). Briefly: SPR (BIAcore), plasmin injected over immobilised p97. The protocol:
as §1, §2, §3

For data set [8], the target named is T2, plasminogen. The data set can be described thus: SPR (BIAcore), p97 over immobilised plasminogen, two state conformation change model. The protocol: as §1
In data set [9] the target is T2, plasminogen. The data set can be described thus: SPR (BIAcore), plasminogen over immobilised p97, two state conformational change model (apparent KD). The protocol: as §1, §2, §3
In data set [10] the target is T2, plasminogen. Briefly: SPR (BIAcore), plasminogen over immobilised p97, two state conformational change model (ka1). The protocol:
as §1, §2, §3

Data set [11] deals with T2, plasminogen. Briefly: SPR (BIAcore), plasminogen over immobilised p97, two state conformational change model (kd1). The protocol:
as §1, §2, §3

The target of data set [12] is T2, plasminogen. Briefly: SPR (BIAcore), various concentrations of p97 injected over immobilised plasminogen; plasminogen immobilized, p97 injected. The protocol: as §1
For data set [13], the target named is T1, pro-urokinase plasminogen activator …. The data set can be described thus: SPR (BIAcore), pro-uPA over immobilised p97, two state conformational change model (kd1). The protocol:
as §4, §2, §3

For data set [14], the target named is B3. The data set can be described thus: SPR (BIAcore), RAP injected over immobilised p97. The protocol: as §1, §5
For data set [15], the target named is B3. Briefly: SPR (BIAcore), angiostatin injected over immobilised p97. The protocol: as §1, §2, §3

Chain of plasmin (P00747 97-810 limits assumed): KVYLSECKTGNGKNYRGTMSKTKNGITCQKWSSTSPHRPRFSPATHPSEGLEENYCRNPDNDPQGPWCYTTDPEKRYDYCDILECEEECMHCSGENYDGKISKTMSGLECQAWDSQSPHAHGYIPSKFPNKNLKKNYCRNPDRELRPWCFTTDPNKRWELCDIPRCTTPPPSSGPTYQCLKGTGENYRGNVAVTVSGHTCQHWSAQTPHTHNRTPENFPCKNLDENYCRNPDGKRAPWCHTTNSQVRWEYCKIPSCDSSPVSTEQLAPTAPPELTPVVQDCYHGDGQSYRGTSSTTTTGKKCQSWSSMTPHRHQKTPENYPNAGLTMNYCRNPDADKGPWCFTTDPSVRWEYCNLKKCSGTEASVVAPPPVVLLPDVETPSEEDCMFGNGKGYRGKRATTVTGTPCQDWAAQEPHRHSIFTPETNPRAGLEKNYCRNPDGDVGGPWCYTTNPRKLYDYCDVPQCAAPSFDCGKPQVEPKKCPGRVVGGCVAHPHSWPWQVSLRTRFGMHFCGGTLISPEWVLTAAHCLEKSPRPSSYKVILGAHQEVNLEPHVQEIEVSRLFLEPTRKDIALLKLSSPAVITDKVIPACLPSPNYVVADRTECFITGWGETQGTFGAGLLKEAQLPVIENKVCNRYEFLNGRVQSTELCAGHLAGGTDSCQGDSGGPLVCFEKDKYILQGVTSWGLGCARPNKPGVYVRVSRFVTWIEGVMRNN

B1: ovalbumin (other, UniProt P01012 2-386, looked up)
chain: GSIGAASMEFCFDVFKELKVHHANENIFYCPIAIMSALAMVYLGAKDSTRTQINKVVRFDKLPGFGDSIEAQCGTSVNVHSSLRDILNQITKPNDVYSFSLASRLYAEERYPILPEYLQCVKELYRGGLEPINFQTAADQARELINSWVESQTNGIIRNVLQPSSVDSQTAMVLVNAIVFKGLWEKAFKDEDTQAMPFRVTEQESKPVQMMYQIGLFRVASMASEKMKILELPFASGTMSMLVLLPDEVSGLEQLESIINFEKLTEWTSSNVMEERKIKVYLPRMKMEEKYNLTSVLMAMGITDVFSSSANLSGISSAESLKISQAVHAAHAEINEAGREVVGSAEAGVDAASVSEEFRADHPFLFCIKHIATNAVLFFGRCVSP
Take B1: the binding result in data set [1] is recorded as “no binding”.

B2: tissue plasminogen activator (tPA) (enzyme, UniProt P00750 36-562, looked up)
chain: SYQVICRDEKTQMIYQQHQSWLRPVLRSNRVEYCWCNSGRAQCHSVPVKSCSEPRCFNGGTCQQALYFSDFVCQCPEGFAGKCCEIDTRATCYEDQGISYRGTWSTAESGAECTNWNSSALAQKPYSGRRPDAIRLGLGNHNYCRNPDRDSKPWCYVFKAGKYSSEFCSTPACSEGNSDCYFGNGSAYRGTHSLTESGASCLPWNSMILIGKVYTAQNPSAQALGLGKHNYCRNPDGDAKPWCHVLKNRRLTWEYCDVPSCSTCGLRQYSQPQFRIKGGLFADIASHPWQAAIFAKHRRSPGERFLCGGILISSCWILSAAHCFQERFPPHHLTVILGRTYRVVPGEEEQKFEVEKYIVHKEFDDDTYDNDIALLQLKSDSSRCAQESSVVRTVCLPPADLQLPDWTECELSGYGKHEALSPFYSERLKEAHVRLYPSSRCTSQHLLNRTVTDNMLCAGDTRSGGPQANLHDACQGDSGGPLVCLNDGRMTLVGIISWGLGCGQKDVPGVYTKVTNYLDWIRDNMRP
notes: Bought reagent
With B2, in data set [2], the binding result is “no binding (tested: 0.05 µg/µl)”.
As for B3, the kon in data set [3] amounted to 6620 M⁻¹ s⁻¹; in data set [7], 6600 M⁻¹ s⁻¹; in the data set with plasminogen [10], 21000 M⁻¹ s⁻¹. In addition, the Kd in data set [4] stood at 65 nM; in the data set with plasminogen [8] it was 260 nM; with plasminogen [9] it was 350 nM; with plasminogen [12], 275 nM. In the data set with plasminogen [5], the “increase of plasminogen activation by tPA after 180 minutes (VLK-peptide hydrolysis)” value came to 6 fold. In the data set with plasminogen [5], the “increase of plasminogen activation by tPA in the presence of p97 (VLK peptide hydrolysis)” value amounted to 4 fold. Also, the binding result is on record as “no binding (tested: 0.05 µg/µl (5 µg/100 µl))” in [6] and “no binding (tested: 0.05 µg/µl)” with plasmin. In addition, the koff worked out at 0.043 s⁻¹ with plasminogen [11] and 0.0017 s⁻¹ in data set [13].

B4: receptor-associated protein (RAP) (other, UniProt P30533 35-357, looked up)
chain: YSREKNQPKPSPKRESGEEFRMEKLNQLWEKAQRLHLPPVRLAELHADLKIQERDELAWKKLKLDGLDEDGEKEARLIRNLNVILAKYGLDGKKDARQVTSNSLSGTQEDGLDDPRLEKLWHKAKTSGKFSGEELDKLWREFLHHKEKVHEYNVLLETLSRTEEIHENVISPSDLSDIKGSVLHSRHTELKEKLRSINQGLDRLRRVSHQGYSTEAEFEEPRVIDLWDLAQSANLTDKELEAFREELKHFEAKIEKHNHYQKQLEIAHEKLRHAESVGDGERVSRSREKHALLEGRTKELGYTVKKHLQDLSGRISRARHNEL
For B4, the binding result in [14] is given as “no binding (tested: 0.05 µg/µl)”.

B5: angiostatin (other, UniProt P00747 98-459, looked up)
chain: VYLSECKTGNGKNYRGTMSKTKNGITCQKWSSTSPHRPRFSPATHPSEGLEENYCRNPDNDPQGPWCYTTDPEKRYDYCDILECEEECMHCSGENYDGKISKTMSGLECQAWDSQSPHAHGYIPSKFPNKNLKKNYCRNPDRELRPWCFTTDPNKRWELCDIPRCTTPPPSSGPTYQCLKGTGENYRGNVAVTVSGHTCQHWSAQTPHTHNRTPENFPCKNLDENYCRNPDGKRAPWCHTTNSQVRWEYCKIPSCDSSPVSTEQLAPTAPPELTPVVQDCYHGDGQSYRGTSSTTTTGKKCQSWSSMTPHRHQKTPENYPNAGLTMNYCRNPDADKGPWCFTTDPSVRWEYCNLKKCSGTEA
notes: domain: angiostatin (plasminogen fragment)
As for B5, the binding result in data set [15] is listed as “no binding (tested: 0.05 µg/µl)”.
